This test addresses T1, VEGF_(34-121), 88-residue VEGF fragment displayed on S. carnosus (Homo sapiens).
T1 chain: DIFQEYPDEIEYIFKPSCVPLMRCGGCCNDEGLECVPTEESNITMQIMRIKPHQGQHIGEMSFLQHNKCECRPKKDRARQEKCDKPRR
Description: flow cytometry on cells.

B1: Avastin (antibody, V domains shown)
VH: EVQLVESGGGLVQPGGSLRLSCAASGYTFTNYGMNWVRQAPGKGLEWVGWINTYTGEPTYAADFKRRFTFSLDTSKSTAYLQMNSLRAEDTAVYYCAKYPHYYGSSHWYFDVWGQGTLVTVSS
VL: DIQMTQSPSSLSASVGDRVTITCSASQDISNYLNWYQQKPGKAPKVLIYFTSSLHSGVPSRFSGSGSGTDFTLTISSLQPEDFATYYCQQYSTVPWTFGQGTKVEIK
As to B1, the binding result is listed as “binds”.

These data come from PMC3463815 (Scientific Reports, 2012).
